The source of these data is patent US20240245805A1 (Orna Therapeutics, Inc., priority 2020, published 2024).

In this series the test system is HEK293 cells. In kind it is cell-based, human. Particulars: circular RNA encoding Gluc with the listed IRES (UTR truncated to 675 nt) transfected into HEK293 cells; supernatant after 24 hours.

B1: Porcine Kobuvirus GS2 (nucleic acid, listed as Kobuvirus sp.)
DNA: TTTGAAAAGGGGGTGGGGGGGCCTCGGCCCCCTCACCCTCTTTTCCGGTGGCCATTCGCCCGGGCCACCGTTACTCCACTCCACTCCTTCGGGACTGGTTTGGAGGAACACAACAGGGCTTCCCATCCCTGTTTACCCTTTATTCCATCATCCTTTCCCCAAGTTTACCCTATCCACACCCCACTGACTGACTCCTTTGGATTTTGACCTCAGAATGCCTATTTGACCTCCCACTCGCCTCTCCCTTTTCGGATTGCCGGTGGTGCCTGGCGGAAAAAGCACAAGTGTGTTGCAGGCTACCAAACTCCTACCCGACAAAGGTGCGTGTCCGCGTGCTGAGTAATGGGATAGGAGATGCCTACAACAGGCTCGCCCATGAGTAGAGCATGGACTGCGGTGCATGTGACTTCGGTCACCACGGGCATAGCATTGCTCACCCGTGAATCAAGTCATCGAGATTTCTCTGACCTCTGAAGTGCACTGTGGTTGCGTGGCTGGGAATCCACGCTTGACCATGTACTGCTTGATAGAGTCGCGGCTGGCCGACTCATGGGTTAAAGTCAGTTGACAAGACAC
modifications: lipid formulation
Consider B1, for which the “Expression (luminescence from secreted Gluc protein)” value (“Expression” below) is 44200000.

B2: Simian pegivirus (nucleic acid, listed as Pegivirus sp.)
DNA: GGGGAATCTCACCCCCCGTCCGGTTCCGGAAGAATCGGAAACCGACACCCTGACCAATCATTCTTGATCATAGAGTGGATGTTAGTGAAAGCCAGACGAAAGCCGGCGGATGGGTGGTGACAGGGTTGGTAGGTCGTAAATCCCGGCCACCCTGGTACCCGGTATAAGTTGGGCGGAAGCTGACTGAAGCTCCGTGCTCTTTTCTGTGCGTTCTTGGTGCACGGTCCACAGGTGACGCCTATACCGGTGTGAATAATAGGCCGACTCGAGCGGAGTCGTTAAACTGAGAACCTCCATACGGATGGCAACTTGGCTTGCGTACGGGGACGCCGCTAAAGTCACAGTGGGTTAAGTCCGGCGGGTTGACAACCCCAGCAAGGCGAGGGGGTCCTATTGTTGGACTCTGCCAGTTCCCGGTGGAGGTAGGCATGGGGTGGCCCAGCTCCGCGGCGCGCTACAGCCGGGGTAGCCCAAAATCCGAAAGGTGAGGGCGGGCCACATGTCCGAAATTTAGTCAAGC
modifications: lipid formulation
With B2, the “Expression” value was 8.56E+04.

B3: Tropivirus A (nucleic acid)
DNA: TGTCGCATGTTGCCAACATCAAAATTCTGGGAGAGTCGCGAACTCCTTAACACTGCCTTGCCTCGACGGAGCCGTTGTTATAGTGTCGACGGGATACAAACATTAAACTAAACCCACTTGCCTCGACGGAACCCCTTACCTTTTATTTTATTTTATAGTATGAAAGTGAATCTTGTATGAATGTTCATAGAAAACTGCAAATGAGTACCACGTCTAACATGAGAGAATGATACTGGAGAAATCCAAGTTTAGAAGTCACTACGAATCCCAGCGGAAACAAGGGAATTCTGAGCTTCTAATAGGCGTTTAAGACTATTTGCAAAATTCTGGTGCGTAAGTGATATTTTCATTGCGTAGAACGCTGGTAACCACTCCGGCTAGTATAAGCATTGTTAGTCACTTATTATGAAACTCCACACTATCCTTTCTGGAGAAGCACACAAACTTACATGGTAAAGCTAGACCATTATCTTAAGCGGTGAGTACACTGCAACCTTGTAACAATGCTTGTATGACTACTTTTTGTATATCTTGAGCAATATTGTTGAGGTGGACATGTCCAAAGGTAATGTTGTTGGGAATGGAGGGGTCCATTTTCCCGTGCACGTAGTGTACTAGTATTGGGTGATAGCCTTGCGGCGGATCAACCATGTATTTTAATCCGTTGACTTTCAC
modifications: Tropivirus A
For B3, the “Expression” value came out at 9.52E+04.

B4: A73-675 (nucleic acid)
DNA: TTACTCCATTCAGCTTCTTCGGAACCTGTTCGGAGGAATTAAACGGGCACCCATACTCCCCCCACCCCCCTTTTGTAACTAAGTATGTGTGCTCGTGATCTTGACTCCCACGGAACGGACCGATCCGTTGGTGAACAAACAGCTAGGTCCACATCCTCCCTTCCCCTGGGAGGGCCCCCGCCCTCCCACATCCTCCCCCCAGCCTGACGTATCACAGGCTGTGTGAAGCCCCCGCGAAAGCTGCTCACGTGGCAATTGTGGGTCCCCCCTTCATCAAGACACCAGGTCTTTCCTCCTTAAGGCTAGCCCCGGCGTGTGAATTCACGTTGGGCAACTAGTGGTGTCACTGTGCGCTCCCAATCTCGGCCGCGGAGTGCTGTTCCCCAAGCCAAACCCCTGGCCCTTCACTATGTGCCTGGCAAGCATATCTGAGAAGGTGTTCCGCTGTGGCTGCCAACCTGGTGACAGGTGCCCCAGTGTGCGTAACCTTCTTCCGTCTCCGGACGGTAGTGATTGGTTAAGATTTGGTGTAAGGTTCATGTGCCAACGCCCTGTGCGGGATGAAACCTCTACTGCCCTAGGAATGCCAGGCAGGTACCCCACCTCCGGGTGGGATCTGAGCCTGGGCTAATTGTCTACGGGTAGTTTCATTTCCAATCCTTTTATGTCGGAGTC
modifications: source: /note="Description of Unknown: A73-675 sequence"
Consider B4, for which the “Expression” value is listed as 1.30E+08.

B5: Pegivirus I (nucleic acid)
DNA: AGAATGGTCTAAGTGGTTGCCACCGTGGTCCGAAGGGGAGGAGGACCTACGCTGCCAGGGTTGGCAGGTCGTAAATCCCGGGTGTAGGAGATCCCTCCTTGTTAGGACTGCTGGTAGCTGGGGGGTCGGTGACCCCCTGGGCAACCGCCAAACCCGGACGACCGGGTGGCGGCTCCATGTTGGCACGGTCCACAGGTGTGAACCCTACCGGTGTGAATAAGGGTTGGTGGTTGCGGTCCACCTTAAACGTAGTATGCATTGGGCTTGGTAAAACACCGCTCGTAGTACGGAACGCCGCCTTTAAAGACACAGTAGGCGTAGCCGGCGGGTTGACAATCCATACGGGGGGTGGGGTGTGGTCATGGATCTGTCCACACCACCTTCATGCGGCCCTCTAAGCAAGCCATACCGGGGGGAGGCGCGCGGCACCGCACTGCCGGGCAAGGGGAAGAACCTTCGGGTGACCCCCCCCCAACCACCGTCCGATCAATGCTAATGTTGCGTTTAGGCGTGACACCGGCACA
modifications: lipid formulation; Pegivirus I
As for B5, the “Expression” value is recorded as 8.02E+04.

B6: Human pegivirus isolate JD2B1I (nucleic acid, listed as Pegivirus sp.)
DNA: TCAGGGTTGGTAGGTCGTAAATCCCGGTCACCTTGGTAGCCACTATAGGTGGGTCTTAAGAGAAGGTTAAGATTCCTCTTGTGCCTGCGGCGAGACCGCGCACGGTCCACAGGTGTTGGCCCTACCGGTGGGAATAAGGGCCCGACGTCAGGCTCGTCGTTAAACCGAGCCCGTCACCCACCTGGGCAAACGACGCCCACGTACGGTCCACGTCGCCCTTCA
With B6, the “Expression” value was determined as 6.85E+05.

B7: 18-675 (nucleic acid)
DNA: CCCACAGCAAGAATGCCATCATCTGTCCTCACCCCCAATTTTCCCTTTTCTTCCCCTGCAACCATTACGCTTACTCGCATGTGCATTGAGTGGTGCATGTGTTGAACAAACAGCTACACTCACATGGGGGCGGGTTTTCCCGCCCTACGGCCTCTCGCGAGGCCCACCCCTTCCCTCCCCTTATAACTACAGTGCTTTGGTAGGTAAGCATCCTGATCCCCCGCGGAAGCTGCTCACGTGGCAACTGTGGGGACCCAGACAGGTTATCAAAGGCACCCGGTCTTTCCGCCTTCAGGAGTATCCCTACTAGTGAATTCTAGCGGGGCTCTGCTTGGTGCCAACCTCCCCCAAATGCGCGCTGCGGGAGTGCTCTTCCCCAACTCACCCTAGTATCCTCTCATGTGTGTGCTTGGTCAGCATATCTGAGACGATGTTCCGCTGTCCCAGACCAGTCCAGTAATGGACGGGCCAGTGCGTGTAGTCGTCTTCCGGCTTGTCCGGGGCATGTTTGGTGAACCGGTGGGGTAAGGTTGGTGTGCCCAACGCCCGTACTTTGGTGACACCTCAAGACCACCCAGGAATGCCAGGGAGGTACCCCACCTCACGGTGGGATCTGACCCTGGGCTAATTGTCTACGGTGGTTCTTCTTGCTTCCACTTCTTTCTTCTGTTCACG
modifications: source: /note="Description of Unknown: 18-675 sequence"
B7: the “Expression” value was 6.04E+07.

B8: Symapivirus A (nucleic acid)
DNA: TTGGGAAATCCCCAATGCTTCTTTCAACACCGCCTGACTATGCGGTGGCGCTTCGGCTCAAACAACTAGTCACTTCCCCCTCTTAACTACTACCCAAGACTTCTAACTACCCTTACCTACTTATTTGTCTAAATTTCAAACTTTTATTCTCACGCGTCTTATAAACATCTTTTCTATTTGTTATGGTATGTTTTGTGATTTGTGTGGTGTATTTCATTTAATGGGATCTAGTGGACCGTGCCCCGGTTGGGTATCCGCTCCCTTTAAATGTTTGCAAGCACTCTTGACATTATAACCTATCATTTAGTTTACTTGTTTGTATGATCGTATTTCTGAATCGTAACATTTATGCAATTCTTTCTCGCCGAGACTTGTCTAGGAGATAAAGTTCCTGCATATTTAGTGTTACGGTTGTATAATGGAGACTTAGATAGCTTCACACTGAGGACGCTTTTTCGCTATCCTTTTGACCTGATTCAGGCCAGTGTGGAGTTAATGATTGTATGGATGGGCCCTACAATTTGTCTAAGACTTGGTGATAGCCTCGCGGCCGCTCGCCATTTATACAACTGAATAGCGGTTGAAACTCTCT
modifications: Symapivirus A
As to B8, the “Expression” value is on record as 1.27E+05.

B9: Aichivirus Rt386 (nucleic acid, listed as Aichivirus sp.)
DNA: ACTCCATTCAGCTTCTTCGGAACCTGTTCGGAGGAATTAAACGGGCACCCACTTTCCTGTCCTCTCCCCCTTTCTGCAACTCAAGTGTGTGCTCGTAATCCTGACTCCCACGGGTTGACCGCCCCGTTGGTGAACAAACAGCTAGGTCATTCCCTCCCTACCCCTGGGCGCCATTTCAGTGGCGTTCATATCCTCCCCCCAGCCTGACGTGTCACAGGCTGTGCAAAGTCCCCGCGAAAGCTGCTCACGTGGCAATTGTGGGTCCCCCCTTTGTGAAGGAACCGAGTCTTTCTCCCTTAAGGCTAGACCCCTGTGTGAACTCACAGGTGGCAACTAGTGGTTCCACTGCATGCTCCCGACCTCGGCCGCGGAGTGCTGTTCCCCAAGTCGTGACACTGACCTCCACTTATGTGCCTGGCAAGCATATCTGAGAAGATGTTCCGCTGTGGCTGCCAAACCTGGTAACAGGTGCCCCAGTGCGTGTAGTCTTCTTCCGTCTCCGGACGGTAAGTGTGTGGTAAAGATGCGGCGTAAGGTTCAAGTGCCAACGCCCTGGAAGGGATGACCCTTCTACTGCCCTAGGAATGCCGCGCAGGTACCCCAGGTTCGCCTGGGATCTGAGCGCGGGCTAATTGTCTACGGGTAGTTTCATTTCCCTCTCTTTTCACTGGCATC
With B9, the “Expression” value came out at 5.71E+07.
